The values that follow come from paper PMC7193609, “DNA replication machinery prevents Rad52-dependent single-strand annealing that leads to gross chromosomal rearrangements at centromeres”.

In the series the target is T1, Rad52-6His-3Flag (wild type) (Schizosaccharomyces pombe (fission …, UniProt P36592 1-469)).
T1 sequence: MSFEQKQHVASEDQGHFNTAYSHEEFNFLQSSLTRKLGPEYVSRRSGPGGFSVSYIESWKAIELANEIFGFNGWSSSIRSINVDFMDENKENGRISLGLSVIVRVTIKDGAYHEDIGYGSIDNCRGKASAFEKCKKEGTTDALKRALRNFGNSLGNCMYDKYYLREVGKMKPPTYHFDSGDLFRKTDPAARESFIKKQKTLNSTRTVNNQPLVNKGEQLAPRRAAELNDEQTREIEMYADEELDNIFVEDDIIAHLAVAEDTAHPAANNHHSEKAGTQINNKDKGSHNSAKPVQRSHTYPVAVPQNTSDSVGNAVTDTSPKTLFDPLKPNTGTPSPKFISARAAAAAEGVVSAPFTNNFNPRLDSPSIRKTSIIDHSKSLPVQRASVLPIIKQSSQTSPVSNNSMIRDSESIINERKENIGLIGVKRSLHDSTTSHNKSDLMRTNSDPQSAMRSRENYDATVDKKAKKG
As to the kind of experiment: EMSA; 0-200 nM Rad52, 2 nM DNA; complexes retained in well; EMSA: 32 mM Tris-HCl pH 7.8, 40 mM KCl, 0.8 mM DTT, 0.08 mg/mL BSA, 30 °C, 10 min; 10% native PAGE in 1x TAE. The following applies: protein: recombinant; tags: C-terminal 6His-3Flag; label: 5'-32P; single strand, 48 nt.

B1: Oligo211 (ssDNA)
DNA: GAAGCATTTATCAGGGTTATTGTCTCATGAGCGGATACATATTTGAAT
As for B1, the binding result is given as “binds”.
